Reference: patent US20160280744A1

How the values were obtained:
[1] = biological target: human IgG (Oriental Yeast Co., ltd) (human); experiment: pH gradient affinity chromatography, bound at pH 7.2, gradient 20 mM citric acid pH 6.0 to pH 2.4 over 80 min
[2] = biological target: human IgG (Oriental Yeast Co., ltd) (human); experiment: affinity column (1 ml carrier with immobilised protein), human IgG 1 mg/ml at pH 7.2, 10% breakthrough, flow rate 0.4 mL/min
[3] = biological target: human IgG (Oriental Yeast Co., ltd) (human); experiment: affinity column (1 ml carrier with immobilised protein), human IgG 1 mg/ml at pH 7.2, 10% breakthrough, flow rate 1.0 mL/min

pH at the peak of the elution of human IgG [1]: 4.4 pH | dynamic binding capacity (DBC) [2]: 12.3 mg | dynamic binding capacity (DBC) [3]: 5.3 mg
B1: tandem-type tetramer PG, rPG-A4 (CGB19H-4D) (designed binder)
chain: MAYYDPETGTWYSGGRDTYKLILNGKTLKGETTTEAVDAATAEKVFKHYANEHGVHGHWTYDPETKTFTVTERPEVIDASELTPAVDTYKLILNGKTLKGETTTEAVDAATAEKVFKHYANEHGVHGHWTYDPETKTFTVTERPEVIDASELTPAVDTYKLILNGKTLKGETTTEAVDAATAEKVFKHYANEHGVHGHWTYDPETKTFTVTERPEVIDASELTPAVDTYKLILNGKTLKGETTTEAVDAATAEKVFKHYANEHGVHGHWTYDPETKTFTVTERPEVIDASELTPAVGGGGSGGGGSGGGGSGGGGCHHHHHH
